# Results: PMC6412114
# B1: AU-rich dsRNA (dsRNA)
# RNA 1: GGAUCCAUUUAUUUAUUUAUUUAAGCUUGG
# RNA 2: CCUAGGUUAAAUAAAUAAAUAAAUCGAUCC
# B2: AU-rich DNA/RNA hybrid (DNA:RNA)
# RNA: B1 RNA 1
# DNA: CCTAGGTTAAATAAATAAATAAATCGATCC
# B3: AU-rich dsDNA (dsDNA)
# DNA 1: GGATCCATTTATTTATTTATTTAAGCTTGG
# DNA 2: B2 DNA
# Columns and labels:
# IDH1 [1] = biological target: T1, IDH1 (UniProt O75874 1-414); test: EMSA
# IDH1 [2] = biological target: T1, IDH1; test: EMSA; remark: listed apart in the source
# T1 sequence (O75874 whole entry): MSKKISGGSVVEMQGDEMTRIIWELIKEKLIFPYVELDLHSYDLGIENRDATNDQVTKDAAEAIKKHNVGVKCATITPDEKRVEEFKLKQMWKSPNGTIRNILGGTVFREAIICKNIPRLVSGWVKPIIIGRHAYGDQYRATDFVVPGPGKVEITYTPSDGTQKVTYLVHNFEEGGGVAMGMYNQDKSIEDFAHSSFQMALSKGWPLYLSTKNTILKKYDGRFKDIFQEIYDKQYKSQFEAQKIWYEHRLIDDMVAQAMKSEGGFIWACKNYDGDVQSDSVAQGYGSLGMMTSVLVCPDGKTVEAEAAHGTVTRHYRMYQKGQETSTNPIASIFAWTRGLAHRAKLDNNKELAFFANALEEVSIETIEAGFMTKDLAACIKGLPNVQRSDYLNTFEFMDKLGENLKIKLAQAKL
binder,measurement,setting,value
B1,binding result,IDH1 [1],no binding
B2,binding result,IDH1 [1],no binding
GGATCCATTTATTTATTTATTTAAGCTTGG (ssDNA) [AU-rich ssDNA],binding result,IDH1 [1],no binding
GGAUCCAUUUAUUUAUUUAUUUAAGCUUGG (ssRNA) [AU-rich ssRNA],Kd,IDH1 [2],680 ± 70 nM
B3,binding result,IDH1 [1],no binding
